Reference: PMC9881219, “The NTPase activity of the double FYVE domain–containing protein 1 regulates lipid droplet metabolism” (The Journal of Biological Chemistry, 2022)
Where a chain is given by its changes, count along the chain named. In names and notes the source's numbering stands.

B1: full-length FLAG-DFCP1 (human double FYVE domain-containing protein 1) (natural protein, UniProt Q9HBF4 1-777, looked up)
chain: MSAQTSPAEKGLNPGLMCQESYACSGTDEAIFECDECCSLQCLRCEEELHRQERLRNHERIRLKPGHVPYCDLCKGLSGHLPGVRQRAIVRCQTCKINLCLECQKRTHSGGNKRRHPVTVYNVSNLQESLEAEEMDEETKRKKMTEKVVSFLLVDENEEIQVTNEEDFIRKLDCKPDQHLKVVSIFGNTGDGKSHTLNHTFFYGREVFKTSPTQESCTVGVWAAYDPVHKVAVIDTEGLLGATVNLSQRTRLLLKVLAISDLVIYRTHADRLHNDLFKFLGDASEAYLKHFTKELKATTARCGLDVPLSTLGPAVIIFHETVHTQLLGSDHPSEVPEKLIQDRFRKLGRFPEAFSSIHYKGTRTYNPPTDFSGLRRALEQLLENNTTRSPRHPGVIFKALKALSDRFSGEIPDDQMAHSSFFPDEYFTCSSLCLSCGVGCKKSMNHGKEGVPHEAKSRCRYSHQYDNRVYTCKACYERGEEVSVVPKTSASTDSPWMGLAKYAWSGYVIECPNCGVVYRSRQYWFGNQDPVDTVVRTEIVHVWPGTDGFLKDNNNAAQRLLDGMNFMAQSVSELSLGPTKAVTSWLTDQIAPAYWRPNSQILSCNKCATSFKDNDTKHHCRACGEGFCDSCSSKTRPVPERGWGPAPVRVCDNCYEARNVQLAVTEAQVDDEGGTLIARKVGEAVQNTLGAVVTAIDIPLGLVKDAARPAYWVPDHEILHCHNCRKEFSIKLSKHHCRACGQGFCDECSHDRRAVPSRGWDHPVRVCFNCNKKPGDL
notes: Human DFCP1 (ZFYVE1), UniProt Q9HBF4, full length; A TEV site lies between FLAG and DFCP1; no cleavage is described for this protein; The domain diagram gives 1-777 for the full-length protein; also called FL DFCP1; FL hsDFCP1; not shown: FLAG, N-terminal, kept
B2: MBP-DFCP1 (112-415), WT NTPase domain of mouse DFCP1 (domain or fragment, UniProt Q810J8 112-415, looked up)
chain: NKRRHPITVYLVSKVQESLEGEEMDEETKRKKMTERVVSFLLVDENEEIQVTNEEDFIRKLDCKPDQHLKVVSIFGNTGDGKSHTLNHTFFYGREVFKTSPAQESCTVGVWAAYDPVHKVAVIDTEGLLGATVNLSQRTRLLLKVLAISDLVIYRTHADRLHNDLFKFLGDASEAYLKHFTKELKATTARCGLDVPLSTLGPAVIIFHETVHTQLLGSDHPSEAPEKLIQDRFRKLGRFPEAFSSIHYKGTRTYNPPTDFSGLRRALEQLLENNTTRSPRHPGVIFKALKALSDRFSGEIPDDQ
notes: Mouse DFCP1, UniProt Q810J8, residues 112-415 (NTPase domain, 98.8% identical to human DFCP1), in pMal-c2e; MBP was removed with TEV protease only after the SEC step, for the nucleotide hydrolysis assays; also called WT (112-415); DFCP1 NTPase domain; source: E. coli Rosetta (DE3), purified (amylose resin, Superdex 200 SEC); not shown: MBP, N-terminal, kept
B3: MBP-DFCP1 (112-415) R266Q (domain or fragment, mouse, UniProt Q810J8 112-415, looked up)
chain: B2 chain with R155Q
notes: Mouse DFCP1, UniProt Q810J8, residues 112-415 (NTPase domain) with R266Q, in pMal-c2e; R266Q is a cancer-related mutation found in human patients (endometrial and colorectal cancers); Here it was introduced into the mouse NTPase domain by mutagenesis; also called RQ; RQm/RQd (monomeric/dimeric states); source: E. coli Rosetta (DE3), purified (amylose resin, Superdex 200 SEC); not shown: MBP, …
B4: MBP-DFCP1 (112-415) K193A (domain or fragment, mouse, UniProt Q810J8 112-415, looked up)
chain: B2 chain with K82A
notes: Mouse DFCP1, UniProt Q810J8, residues 112-415 (NTPase domain) with K193A, in pMal-c2e; also called KA; K193A NTPase domain; source: E. coli Rosetta (DE3), purified (amylose resin, Superdex 200 SEC); not shown: MBP, N-terminal, kept
B5: MBP-DFCP1 (112-415) K193A/R266Q (domain or fragment, mouse, UniProt Q810J8 112-415, looked up)
chain: B2 chain with K82A, R155Q
notes: Mouse DFCP1, UniProt Q810J8, residues 112-415 (NTPase domain) with both K193A and R266Q, in pMal-c2e; also called KARQ; KA/RQ; source: E. coli Rosetta (DE3), purified (amylose resin, Superdex 200 SEC); not shown: MBP, N-terminal, kept

Assays:
[1] = molecular target: the molecule itself; experiment: SEC; full-length FLAG-DFCP1 on Superose 6; 25 mM Tris pH 8, 150 mM NaCl, 1 mM DTT, 1 mM MgCl2; monomer and dimer peaks
[2] = molecular target: the molecule itself; experiment: SEC; MBP-DFCP1 (112-415) constructs on HiLoad 26/600 Superdex 200 pg; 25 mM Tris pH 8.0, 150 mM NaCl, 1 mM MgCl2, 1 mM DTT; monomer and dimer peaks

Protein | binding result [1] | binding result [2]
B1 | binds | –
B2 | – | binds
B3 | – | binds
B4 | – | binds
B5 | – | binds
